B1: Tissue-nonspecific alkaline phosphatase (TNALP): N230Q/N303Q (protein)
parent chain: MISPFLVLAIGTCLTNSLVPEKEKDPKYWRDQAQETLKYALELQKLNTNVAKNVIMFLGDGMGVSTVTAARILKGQLHHNPGEETRLEMDKFPFVALSKTYNTNAQVPDSAGTATAYLCGVKANEGTVGVSAATERSRCNTTQGNEVTSILRWAKDAGKSVGIVTTTRVNHATPSAAYAHSADRDWYSDNEMPPEALSQGCKDIAYQLMHNIRDIDVIMGGGRKYMYPKNKTDVEYESDEKARGTRLDGLDLVDTWKSFKPRYKHSHFIWNRTELLTLDPHNVDYLLGLFEPGDMQYELNRNNVTDPSLSEMVVVAIQILRKNPKGFFLLVEGGRIDHGHHEGKAKQALHEAVEMDRAIGQAGSLTSSEDTLTVVTADHSHVFTFGGYTPRGNSIFGLAPMLSDTDKKPFTAILYGNGPGYKVVGGERENVSMVDYAHNNYQAQSAVPLRHETHGGEDVAVFSKGPMAHLLHGVHEQNYVPHVMAYAACIGANLGHCAPASSAGSLAAGPLLLALALYPLSVLF
B2: Tissue-nonspecific alkaline phosphatase (TNALP): N271Q/N430D (protein)
parent chain: B1 parent chain
B3: Tissue-nonspecific alkaline phosphatase (TNALP): N140Q/N271Q (protein)
parent chain: B1 parent chain
B4: Tissue-nonspecific alkaline phosphatase (TNALP): N230Q (protein)
parent chain: B1 parent chain
B5: Tissue-nonspecific alkaline phosphatase (TNALP): N430D (protein)
parent chain: B1 parent chain
B6: Tissue-nonspecific alkaline phosphatase (TNALP): N271Q (protein)
parent chain: B1 parent chain
B7: Tissue-nonspecific alkaline phosphatase (TNALP): N230Q/N430D (protein)
parent chain: B1 parent chain
B8: Tissue-nonspecific alkaline phosphatase (TNALP): N140Q/N230Q (protein)
parent chain: B1 parent chain
B9: Tissue-nonspecific alkaline phosphatase (TNALP): N303Q (protein)
parent chain: B1 parent chain
B10: Tissue-nonspecific alkaline phosphatase (TNALP): N303Q/N430D (protein)
parent chain: B1 parent chain
B11: Tissue-nonspecific alkaline phosphatase (TNALP): N140Q (protein)
parent chain: B1 parent chain
B12: Tissue-nonspecific alkaline phosphatase (TNALP): N140Q/N430D (protein)
parent chain: B1 parent chain
B13: Tissue-nonspecific alkaline phosphatase (TNALP): N271Q/N303Q (protein)
parent chain: B1 parent chain
B14: Tissue-nonspecific alkaline phosphatase (TNALP): N140Q/N230Q/N430D (protein)
parent chain: B1 parent chain
B15: Tissue-nonspecific alkaline phosphatase (TNALP): N230Q/N271Q/N303Q (protein)
parent chain: B1 parent chain
B16: Tissue-nonspecific alkaline phosphatase (TNALP): N230Q/N271Q/N430D (protein)
parent chain: B1 parent chain
B17: Tissue-nonspecific alkaline phosphatase (TNALP): N140Q/N303Q (protein)
parent chain: B1 parent chain
B18: Tissue-nonspecific alkaline phosphatase (TNALP): heterodimeric N230Q/N271Q (protein)
parent chain: B1 parent chain
B19: Tissue-nonspecific alkaline phosphatase (TNALP): heterodimeric N140Q/N271Q (protein)
parent chain: B1 parent chain
B20: Tissue-nonspecific alkaline phosphatase (TNALP): heterodimeric N271Q/N430D (protein)
parent chain: B1 parent chain
B21: Tissue-nonspecific alkaline phosphatase (TNALP): heterodimeric N140Q/N430D (protein)
parent chain: B1 parent chain
B22: Tissue-nonspecific alkaline phosphatase (TNALP): heterodimeric N230Q/N303Q (protein)
parent chain: B1 parent chain
B23: Tissue-nonspecific alkaline phosphatase (TNALP): heterodimeric N140Q (protein)
parent chain: B1 parent chain
B24: Tissue-nonspecific alkaline phosphatase (TNALP): heterodimeric N140Q/N230Q (protein)
parent chain: B1 parent chain
B25: Tissue-nonspecific alkaline phosphatase (TNALP): heterodimeric N230Q (protein)
parent chain: B1 parent chain
B26: Tissue-nonspecific alkaline phosphatase (TNALP): heterodimeric N230Q/N430D (protein)
parent chain: B1 parent chain
B27: Tissue-nonspecific alkaline phosphatase (TNALP): heterodimeric N303Q/N430D (protein)
parent chain: B1 parent chain
B28: Tissue-nonspecific alkaline phosphatase (TNALP): heterodimeric N430D (protein)
parent chain: B1 parent chain
B29: Tissue-nonspecific alkaline phosphatase (TNALP): heterodimeric N271Q (protein)
parent chain: B1 parent chain
B30: Tissue-nonspecific alkaline phosphatase (TNALP): heterodimeric N303Q (protein)
parent chain: B1 parent chain
B31: Tissue-nonspecific alkaline phosphatase (TNALP): heterodimeric N271Q/N303Q (protein)
parent chain: B1 parent chain
B32: Tissue-nonspecific alkaline phosphatase (TNALP): heterodimeric N140Q/N303Q (protein)
parent chain: B1 parent chain
B33: Tissue-nonspecific alkaline phosphatase (TNALP): N230Q/N271Q (protein)
parent chain: B1 parent chain

Experiment: SYPRO Orange thermal shift, pooled purified protein
Conditions: glycan lost; control: wild type

Row | Protein | stability_or_folding, Tm
1 | B1 | no change, 54.1 vs 54.5
2 | B2 | increases, 55.3, 69.7 vs 54.5
3 | B3 | decreases, 53.7 vs 54.5
4 | B4 | no change, 54.5 vs 54.5
5 | B5 | increases, 55.7 vs 54.5
6 | B6 | no change, 54.5 vs 54.5
7 | B7 | increases, 55.7 vs 54.5
8 | B8 | no change, 54.9 vs 54.5
9 | B9 | decreases, 53.7 vs 54.5
10 | B10 | increases, 55.3, 70.1 vs 54.5
11 | B11 | no change, 54.9 vs 54.5
12 | B12 | increases, 56.5 vs 54.5
13 | B13 | decreases, 52.9 vs 54.5

Experiment: pNPP activity of supernatant; triple-site mutants
Conditions: glycan lost; control: wild type

Row | Protein | enzymatic_activity
14 | B14 | abolishes
15 | B15 | abolishes
16 | B16 | abolishes

Experiment: remaining pNPP activity after 15 min at 56 °C; homodimeric
Conditions: glycan lost; control: wild type

Row | Protein | stability_or_folding, other: remaining activity
17 | B2 | increases, 63 ± 5 vs 23 ± 4
18 | B10 | increases, 47 ± 13 vs 23 ± 4
19 | B13 | decreases, 12 ± 1 vs 23 ± 4

Experiment: pNPP activity of supernatant, normalised to total protein; homodimeric double mutants
Conditions: glycan lost; control: wild type

Row | Protein | enzymatic_activity, other: specific activity
20 | B1 | no change, 9.5 ± 6.5 vs 13.6 ± 6.6
21 | B2 | decreases, 4.3 ± 3.4 vs 13.6 ± 6.6
22 | B7 | no change, 9 ± 6 vs 13.6 ± 6.6
23 | B8 | decreases, 3.8 ± 3.9 vs 13.6 ± 6.6
24 | B10 | decreases, 4.7 ± 4 vs 13.6 ± 6.6
25 | B17 | decreases, 3.5 ± 2.7 vs 13.6 ± 6.6
26 | B12 | decreases, 7 ± 4.3 vs 13.6 ± 6.6
27 | B13 | decreases, 3.9 ± 2.8 vs 13.6 ± 6.6

Experiment: pNPP activity of supernatant, normalised to total protein; homodimeric single mutants
Conditions: glycan lost; control: wild type

Row | Protein | enzymatic_activity, other: specific activity
28 | B4 | no change
29 | B5 | no change
30 | B9 | no change
31 | B11 | no change

Experiment: pNPP activity; mutant:WT plasmid 1:1 (heterodimers not confirmed)
Conditions: glycan lost; control: wild type plasmid only

Row | Protein | enzymatic_activity, percent_of_wt
32 | B18 | decreases
33 | B19 | decreases
34 | B20 | decreases
35 | B21 | decreases
36 | B22 | decreases
37 | B23 | decreases
38 | B24 | decreases
39 | B25 | decreases
40 | B26 | no change
41 | B27 | decreases
42 | B28 | decreases
43 | B29 | decreases
44 | B30 | decreases
45 | B31 | decreases
46 | B32 | decreases

Experiment: weak anion-exchange HPLC with activity-based detection
Conditions: glycan lost; control: wild type

Row | Protein | other: HPLC isoform profile
47 | B1 | no change
48 | B2 | changes
49 | B4 | no change
50 | B5 | no change
51 | B6 | no change
52 | B7 | changes
53 | B9 | no change
54 | B10 | changes
55 | B11 | no change
56 | B17 | no change
57 | B12 | changes
58 | B13 | changes

Experiment: anti-Flag immunoblot, lysate vs medium, 1 μM MG-132 16 h
Conditions: glycan lost; control: wild type

Row | Protein | localisation_or_trafficking, fold_change
59 | B3 | changes
60 | B33 | changes

Experiment: remaining pNPP activity after 56 °C; mutant:WT plasmid 1:1
Conditions: glycan lost; control: wild type

Row | Protein | stability_or_folding
61 | B20 | no change
62 | B27 | no change
63 | B31 | no change

Experiment: anti-Flag capillary immunoblot of Flag-purified medium, pooled n=6
Conditions: glycan lost; control: wild type

Row | Protein | expression_or_secretion, fold_change
64 | B1 | decreases, 0.4 vs 1.0
65 | B2 | decreases, 0.7 vs 1.0
66 | B3 | decreases, 0.2 vs 1.0
67 | B4 | decreases, 0.5 vs 1.0
68 | B5 | decreases, 0.5 vs 1.0
69 | B33 | abolishes, 0.0 vs 1.0
70 | B6 | decreases, 0.4 vs 1.0
71 | B7 | decreases, 0.6 vs 1.0
72 | B8 | decreases, 0.5 vs 1.0
73 | B9 | decreases, 0.5 vs 1.0
74 | B10 | decreases, 0.7 vs 1.0
75 | B11 | decreases, 0.4 vs 1.0
76 | B17 | decreases, 0.4 vs 1.0
77 | B12 | decreases, 0.6 vs 1.0
78 | B13 | decreases, 0.4 vs 1.0

— publication PMC12861225
